Data taken from article PMC534114.

Biological target: Gab1^F627/659 (Y627F/Y659F) (mouse) (UniProt Q9QYY0)
UniProt Q9QYY0, sequence (Q9QYY0 whole entry, stated change not applied): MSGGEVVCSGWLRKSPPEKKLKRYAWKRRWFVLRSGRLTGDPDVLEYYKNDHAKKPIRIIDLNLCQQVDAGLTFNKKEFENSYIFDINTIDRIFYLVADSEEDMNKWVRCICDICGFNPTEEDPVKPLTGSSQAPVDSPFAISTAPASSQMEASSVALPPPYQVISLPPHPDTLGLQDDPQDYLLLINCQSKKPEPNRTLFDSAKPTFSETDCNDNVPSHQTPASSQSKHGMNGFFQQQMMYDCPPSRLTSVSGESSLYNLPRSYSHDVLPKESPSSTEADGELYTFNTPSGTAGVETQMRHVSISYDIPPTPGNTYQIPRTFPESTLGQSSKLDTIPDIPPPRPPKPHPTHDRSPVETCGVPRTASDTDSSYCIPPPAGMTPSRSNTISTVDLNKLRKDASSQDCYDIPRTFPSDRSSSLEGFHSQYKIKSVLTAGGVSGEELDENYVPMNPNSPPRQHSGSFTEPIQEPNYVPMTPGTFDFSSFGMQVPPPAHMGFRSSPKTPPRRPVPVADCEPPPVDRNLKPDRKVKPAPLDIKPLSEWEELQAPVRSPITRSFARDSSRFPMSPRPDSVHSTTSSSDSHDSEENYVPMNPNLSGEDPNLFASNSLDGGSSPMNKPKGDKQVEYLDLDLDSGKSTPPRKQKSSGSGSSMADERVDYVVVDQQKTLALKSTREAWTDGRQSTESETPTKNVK

Gab1-associated PI-3 kinase activity in anti-Gab1 immunoprecipitates after EGF treatment (100 ng/ml, five minutes), relative to wild type Gab1: 2 fold
basal PI-3 kinase activity in anti-Gab1 immunoprecipitates (PIP3 production), relative to wild type Gab1: 1.6 fold
Substance: p85, the regulatory subunit of PI-3 kinase (from UniProt P26450 1-724) (natural protein)
